Assay results published in patent US20110223176A1 (AbbVie / Abbott, published 2011).
Positions count from the first letter of the chain named. Where two headings read alike, the source gives them in different places. Values belong to the binder of their own block, whether it stands above or below them.

Key:
[1] = target: T1, human BSG2 (basigin isoform 2) on the cell surface (human, UniProt P35613 140-385); assay: cell-based or functional assay
T1 sequence: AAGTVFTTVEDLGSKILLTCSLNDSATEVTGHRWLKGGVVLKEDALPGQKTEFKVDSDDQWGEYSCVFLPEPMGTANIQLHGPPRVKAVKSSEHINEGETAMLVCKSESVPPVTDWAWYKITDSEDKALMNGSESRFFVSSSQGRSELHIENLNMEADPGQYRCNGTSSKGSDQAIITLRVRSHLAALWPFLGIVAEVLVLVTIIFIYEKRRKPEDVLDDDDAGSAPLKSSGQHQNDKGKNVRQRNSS

[2] = target: T1, human BSG2 (basigin isoform 2) on the …; assay: cell-based or functional assay; remark: listed apart in the source
[3] = target: T1, human BSG2 (basigin isoform 2) on the …; assay: cell-based ECL (MSD) binding on cells expressing human BSG2
Description: Cells were plated at 25,000 cells/well in 25 μl PBS using 96 well MSD high binding plates (MSD, catalogue no. L11XB-3), and incubated at 37° C. for 1 hour. 25 μl/well of blocking solution (30% serum in PBS) was added to the plates for 30 minutes at room temperature with mild agitation. Plates were then incubated with 25 μl/well of BSG2 antibodies (10 μg/ml) diluted in assay buffer (10% serum in PBS) for 1 hour at room temperature with mild agitation, and then washed 3× with PBS. Goat anti-mouse or anti-human IgG sulfotag was added at 1 μg/ml for 1 hour with mild agitation, and plates were washed 3× with PBS. After the final wash, plates were incubated with 2×MSD surfactant-free read buffer (catalogue no. R92TD-2) and the signal was detected on a MSD SECTOR Imager 6000. Data were analyzed using Graphpad Prism software and EC₅₀ values were reported.
Select humanized variants were also tested for their functionality using ADCC and cell viability assays (described in Examples 1.6 and 1.7).

[4] = target: T1, human BSG2 (basigin isoform 2) on the …; assay: receptor binding assay, Eu-labeled antibody on cells expressing human BSG2
Description: (§1) Cell lines expressing BSG2 were harvested and washed once in assay buffer (PBS, 0.1% BSA, 0.02% Na Azide, 10 mM EDTA) and resuspended to 5×10⁶ cells per mL. Serial 1:2 dilutions of ⁺³Eu-labeled anti-BSG2 antibody stock in assay buffer were made for final concentrations ranging from 1.6×10⁻⁸-7.7×10⁻¹² M, and a 4 mg/mL solution of unlabeled anti-BSG2 antibody was also prepared. To 96 well round bottom plates, 25 μl of ⁺³Eu-labeled antibody dilutions were added to 25 μl buffer (total counts), or 25 μl of unlabeled antibody were added to 25 μl buffer (background counts). 50 μl of cells at 2.5×10⁵ cells per well were then added to all samples, mixed gently, and incubated on ice for 1 hour. Cell bound antibody was then separated from unbound antibody by transferring 20 μL of the reaction mixture to Acrowell 96 well filter plates (Pall PN 5020), centrifuged for 5 min (2200 rpm), washed 3× with 150 μL cold assay buffer, and centrifuged for 5 min. Signal was determined by incubating samples with 150 μL/well of enhancement buffer and read using Envision. The specific counts were determined by subtracting the background counts (cells+labeled antibody+excess cold antibody) from the corresponding total counts (cells+labeled antibody) for each antibody concentration. The labeled antibody concentration versus total counts was analyzed using Graphpad Prism 4 to calculate Kd and Bmax values.

[5] = target: T1, human BSG2 (basigin isoform 2) on the …; assay: flow cytometry (FACS) on BAF3 cells expressing human BSG2
Description: (§2) Stable cell lines overexpressing cell-surface BSG2 or human tumor cell lines were harvested from tissue culture flasks, washed three times and resuspended in phosphate buffered saline (PBS) containing 1% bovine serum albumin and 1 mM CaCl₂ (FACS buffer). 5×10⁵ cells were incubated with antibodies at various concentrations in FACS buffer for 60 minutes on ice. Cells were washed twice and the bound murine monoclonal antibody was detected with a goat Fab′2 anti-mouse IgM+IgG+IgA (H+L) R-phycoerythrin-conjugated antibody (Southern Biotechnology Associates, Inc., Birmingham, Ala., Catalog No. 1012-08) diluted 1:500. Following incubation on ice (4° C., 60 minutes), cells were washed three times and resuspended in FACS buffer. Fluorescence was measured using a Becton Dickinson FACSCalibur-HTS (Becton Dickinson, San Jose, Calif., US). Data were analyzed using Graphpad Prism software and EC₅₀ values were reported as the concentration of antibody to achieve 50% of maximal BSG2 antibodies binding to BSG2 expressing cells.

[6] = target: T1, human BSG2 (basigin isoform 2) on the …; assay: cell-based ECL (MSD) binding on whole cells expressing human BSG2
[7] = target: T2, purified recombinant human BSG2 extracellular domain (human, UniProt P35613 22-325); assay: SPR (Biacore), mAb captured by anti-mouse Fc, BSG2 ECD injected, 25 C
T2 construct: also called Human BSG2 ECD
T2 sequence: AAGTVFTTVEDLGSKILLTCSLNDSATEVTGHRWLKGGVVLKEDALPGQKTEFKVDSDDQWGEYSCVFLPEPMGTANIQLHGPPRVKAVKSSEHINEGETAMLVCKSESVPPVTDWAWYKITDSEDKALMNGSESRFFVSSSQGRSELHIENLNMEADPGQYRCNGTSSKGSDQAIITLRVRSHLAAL
Description: Binding of BSG2 antibodies to a purified recombinant BSG2 extracellular domain (ECD) was determined by surface plasmon resonance-based measurements with a Biacore® instrument (either a Biacore 2000, Biacore 3000, or Biacore T100; GE Healthcare, Piscataway, N.J., US). The assay format for mAb affinity analysis was Fc-based capture via immobilized anti-Fc IgG. A standard amine coupling protocol was employed to immobilize Fc-specific IgG via primary amines to the carboxy-methyl (CM) dextran surface of CMS sensorchips. For the study of mouse anti-human BSG2 mAbs, anti-mouse Fc was used as the immobilized capture reagent. An automated protocol, available on the Biacore 2000, was used to immobilize 8000-10000RU of capture reagent in all 4 flowcells of the sensorchip. Binding was recorded as a function of time and kinetic rate constants were calculated. In this assay, on-rates as fast as 10⁷M⁻¹ s⁻¹ and off-rates as slow as 10⁻⁵ s⁻¹ can be measured.
Briefly, the CM-dextran surfaces were activated by freshly prepared 1:1 […] 3-(N,N-dimethylamino)propyl-N-ethylcarbodiimide (EDC). Then the anti-Fc IgG capture reagent (20 μg/ml in 10 mM sodium acetate, pH 4.5) was applied to the surface followed by deactivation of the surface and blocking of the residual reactive sites with 1M ethanolamine (pH 8.5). The running buffer employed was PBS-PB [1×PBS (Sigma P3813), pH 7.4, 0.005% P20 surfactant, 0.1 mg/ml BSA (Sigma-A7906)] and the assay temperature was 25° C. All reagents were diluted into running buffer to the specified concentrations. Each experimental cycle consisted of the following steps: (1) anti-BSG2 mAbs at 0.5 to 1 μg/ml were captured in flowcells 2, 3 or 4 to a level of 100-120RU. All measurements were referenced against flowcell 1 which had no captured anti-BSG2 mAb; (2) human BSG2 ECD was injected through all 4 flowcells, 240 μl at 80 μl/min. After the antigen injection, dissociation was monitored for 600 seconds at 80 μl/min; and (3) the anti-Fc capture surface was regenerated with 10 mM glycine, pH 1.5.
The BSG2 antibody binding affinities were determined by the BIACORE technology as described in Example 1.2. Table 10 represents the antibody binding kinetics against human and cynomolgus monkey BSG2 extracellular domain (ECD).

[8] = target: T1, human BSG2 (basigin isoform 2) on the …; assay: receptor binding assay, Eu-labeled antibody on cells expressing human BSG2; remark: listed apart in the source
Description: as §1
BSG2 antibody binding activities against whole cells expressing human or cynomolgus monkey BSG2 were assessed by ECL using MSD technology (described in Example 1.3) and the receptor binding assay (described in Example 1.4) and are shown in Table 11.

[9] = target: T1, human BSG2 (basigin isoform 2) on the …; assay: flow cytometry (FACS) on HepG2 hepatocellular carcinoma cells (cell-surface BSG2)
Description: as §2

- ADCC assay (EC50 ng/ml of % specific lysis), HepG2 hepatocellular [2]: 9.3 ng/mL
- EC50 [3]: 0.96 nM
- Kd [4]: 2.3 nM
B5: humanized 6A11-3A3 antibody h3A3-12 (VH.1a/VL.1b) (antibody, IgG1, V domains shown)
VH: EVQLVESGGGLVQPGGSLRLSCAASGFTFSNFWMDWVRQAPGKGLEWIAGIRLKSYNYATHYAESVKGRFTISRDDSKSTVYLQMNSLRAEDTAVYYCTDWDGAYWGQGTLVTVSS
VL: DIVMTQSPSSLSASVGDRVTITCKASQDVSTDVAWYQQKPGKSPKLLIYSASYRYTGVPSRFSGSGSGTDFTLTISSLQPEDIATYYCQQHYSTPFTFGQGTKLEIK
notes: IgG1
- Cross-linking assay (% viability, Cmax: 125 ng/ml), MiaPaCa pancreatic cells [2]: 48.8 % viability

- EC50 [3]: > 100 nM
B7: humanized 6A11-3A3 antibody h3A3-11 (VH.1/VL.1b) (antibody, V domains shown)
VH: B5 VH with I48V, A49G, S79N, V81A, D100R
VL: B5 VL

- EC50 [5]: 0.14 nM
- EC50 [6]: 0.3 nM
- Kd [7]: 47 nM
- koff [7]: 0.019 s⁻¹
- kon [7]: 410000 M⁻¹ s⁻¹
- Kd [8]: 0.15 nM
- EC50 [9]: 0.17 nM
B9: mouse anti-human BSG2 monoclonal antibody SZ66-2D2-2A1 (antibody, mouse IgG2a, kappa, V domains shown)
VH: QVQLQQPGAEIVRPGASVKLSCKASGYTFTDYWMNWVKLRPGQGLEWIGIIDPSDSYASYNQKFKGKATLTVDESSSTAYMQLSSLTSEDSAVYYCARKSYYGGNYYYAMDYWGQGTSVTVSS
VL: EIVLTQSPALMAASPGEKVTITCSVSSSINSINLHWYRQKSETSPKPWIYGTSNLASGVPVRFSGSGSGTSYSLTISSMEAEDAATYYCQQWSSYPLTFGAGTKLELKR
notes: Hybridoma antibody, mouse IgG2a/kappa
- CDC assay (% killing at 10 µg/ml Ab), MiaPaCa-2 pancreatic cancer cells [1]: 84 % killing

The remaining lines, values behind:

B1: chimeric antibody 6A11-3A3 (human IgG1 constant regions) (antibody, V domains shown)
VH: EVKLEESGGGLVQPGGSMKLSCVASGFTFSNFWMDWVRQSPEKGLEWIAGIRLKSYNYATHYAESVKGRFTISRDDSKSSVYLQMNNLRAEDTGIYYCTDWDGAYWGQGTLVTVSA
VL: DIVMTQSHKFMSTSVGDRVSITCKASQDVSTDVAWYQQKPGQSPKLLIYSASYRYTGVPDRFTGSGSGTDFTFTISSVQAEDLAVYYCQQHYSTPFTFGSGTKLEIK
- ADCC assay (EC50 ng/ml of % specific lysis), HepG2 hepatocellular cancer cells [1]: 7.3 ng/mL
- ADCC assay (EC50 ng/ml of % specific lysis), HepG2 hepatocellular [2]: 12.5 ng/mL
- Cross-linking assay (% viability, Cmax: 125 ng/ml), MiaPaCa pancreatic cells [2]: 55.5 % viability

B2: mouse anti-human BSG2 antibody 1F4-2C1 with mouse IgG2a isotype (antibody, V domains shown)
VH: EVKLEESGGGLVQPGGSMKLSCVASGFTFSNFWMDWVRQSPEKGLEWVAEIRLKSTNYATHYAESVKGRFTISRDDSKSSVYLQMNNLRAEDTGIYYCTATSTGYWGQGTTLTVSS
VL: SIVMTQSPKILLVSAGDRVTITCKASQSVSNDVAWYQQKPGQSPKLLIYYASNRYTGVPDRFTGSGYGTDFTFTISTVQAEDLAVYFCQQDYSSPYTFGGGTKLEIK
- CDC assay (% killing at 10 µg/ml Ab), MiaPaCa-2 pancreatic cancer cells [1]: 87 % killing

B3: humanized 6A11-3A3 antibody h3A3-8 (VH.1/VL.1a) (antibody, V domains shown)
VH: B5 VH with I48V, A49G, S79N, V81A, D100R
VL: B5 VL with V3Q
- EC50 [3]: 6.9 nM

B4: humanized 6A11-3A3 antibody h3A3-5 (VH.1/VL.1) (antibody, V domains shown)
VH: B5 VH with I48V, A49G, S79N, V81A, D100R
VL: B5 VL with V3Q, S43A
- EC50 [3]: > 100 nM

B6: humanized 6A11-3A3 antibody h3A3-6 (VH.1a/VL.1) (antibody, IgG1, V domains shown)
VH: B5 VH
VL: B5 VL with V3Q, S43A
notes: IgG1
- ADCC assay (EC50 ng/ml of % specific lysis), HepG2 hepatocellular [2]: 16.4 ng/mL
- Cross-linking assay (% viability, Cmax: 125 ng/ml), MiaPaCa pancreatic cells [2]: 47.9 % viability
- EC50 [3]: 2.05 nM
- Kd [4]: 5.2 nM

B8: humanized 6A11-3A3 antibody h3A3-9 (VH.1a/VL.1a) (antibody, V domains shown)
VH: B5 VH
VL: B5 VL with V3Q
- EC50 [3]: 1.35 nM
